Data taken from the supplement of paper PMC7125110.
± gives the standard error. For some of these results: Fewer inactive variants are shown than the library holds.

B1: glmS ribozyme (parent)
chain: AUAAAAGCGCCAGAACUACAGAAAUGUAGUUGACGAGGAGGAGGUUUAUCGAAUUUUCGGCGGAUGCCUCCAAA

Key:
Conditions in all cases: with glucosamine-6-phosphate
[1] = variants of: B1; assay: kcat; higher = faster cleavage; RNA array
Procedure, shortened: (§1)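 The measurements used barcoded ribozyme variants on sequenced MiSeq chips, transcribed in situ by E. coli RNA polymerase and tracked at 37 °C with a hybridised Cy3 probe. Glucosamine-6-phosphate, 40 μM to 10 mM in HEPES/KCl/Mg(OAc)2 buffer, was flowed in while tiles were imaged over ~14 h. Baseline-normalised signals, also normalised to non-cleaving reference variants, gave per-tile medians that were fit to one- or two-exponential decays for kobs. kcat and KM resulted from weighted Michaelis–Menten fits across concentrations.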

[2] = variants of: B1; assay: self-cleavage kobs at 40 uM GlcN6P; higher = faster cleavage; RNA array
Procedure, shortened: as §1

[3] = variants of: B1; assay: KM; higher = weaker cofactor use; RNA array
Procedure, shortened: as §1

[4] = variants of: B1; assay: self-cleavage kobs at 2500 uM GlcN6P; higher = faster cleavage; RNA array
Procedure, shortened: as §1

[5] = variants of: B1; assay: self-cleavage kobs at 10000 uM GlcN6P; higher = faster cleavage; RNA array
Procedure, shortened: as §1

[6] = variants of: B1; assay: self-cleavage kobs at 640 uM GlcN6P; higher = faster cleavage; RNA array
Procedure, shortened: as §1

[7] = variants of: B1; assay: self-cleavage kobs at 160 uM GlcN6P; higher = faster cleavage; RNA array
Procedure, shortened: as §1

Row | Variant | kcat [1] [s⁻¹] | self-cleavage kobs at 40 uM GlcN6P [2] [s⁻¹] | KM [3] [µM] | self-cleavage kobs at 2500 uM GlcN6P [4] [s⁻¹] | self-cleavage kobs at 10000 uM GlcN6P [5] [s⁻¹] | self-cleavage kobs at 640 uM GlcN6P [6] [s⁻¹] | self-cleavage kobs at 160 uM GlcN6P [7] [s⁻¹]
1 | C50U C61G | 1.39e-05 ± 3.3e-06 | – | – | – | – | – | –
2 | G51A C71G | 2.05e-05 ± 3.5e-06 | – | – | – | – | – | –
3 | G51A C71U | < 1e-05 | < 1e-05 | – | – | – | – | –
4 | A52U U56C | 2.72e-05 ± 1.5e-06 | – | 1210 ± 330 | – | – | – | –
5 | A52U U56A | 7.93e-05 ± 2e-05 | < 1e-05 | – | 7.17e-05 ± 1.7e-05 | 6.73e-05 ± 9.7e-06 | – | –
6 | C50A C58U | 1.33e-05 ± 5.8e-06 | – | – | – | – | < 1e-05 | –
7 | G51U C58G | 1.13e-05 ± 4.5e-06 | < 1e-05 | – | – | < 1e-05 | < 1e-05 | –
8 | A52U A64G C68U | 6.78e-05 ± 4.7e-06 | – | 741 ± 230 | 5.62e-05 ± 2.2e-05 | 6.09e-05 ± 2.2e-05 | – | –
9 | C50U C68G | 4.93e-05 ± 1.9e-05 | – | – | 7.89e-05 ± 1.4e-05 | – | 6.55e-05 ± 1.1e-05 | 3.88e-05 ± 1.6e-05
10 | G51A | 1.01e-05 ± 2.8e-07 | – | 965 ± 160 | – | – | – | –
11 | U49G U69C | 0.000152 ± 6.9e-06 | – | 466 ± 86 | 0.000131 ± 2.7e-05 | 0.00014 ± 3.8e-05 | 8.8e-05 ± 2.4e-05 | –
12 | C50A U55A | 1.62e-05 ± 1.3e-06 | – | 3470 ± 790 | – | – | – | –
13 | C50G C67A | 0.000178 ± 2.6e-05 | 9.53e-05 ± 1.2e-05 | – | 0.000183 ± 2.4e-05 | 0.000145 ± 1.9e-05 | 0.000259 ± 3.2e-05 | 0.000153 ± 2e-05
14 | G51A G59A C70U | 1.55e-05 ± 3.5e-06 | < 1e-05 | – | – | < 1e-05 | – | –
15 | C50A U69G | 5.56e-05 ± 1.8e-05 | 2.65e-05 ± 1.3e-05 | – | 7.89e-05 ± 1.3e-05 | – | 7.86e-05 ± 1.3e-05 | 6.06e-05 ± 1.3e-05
16 | C50G C70U | 0.000103 ± 2.1e-05 | 8.81e-05 ± 1e-05 | – | 0.000149 ± 1.4e-05 | 7.8e-05 ± 8.6e-06 | – | 0.000129 ± 1.5e-05
17 | G51U C61A | < 1e-05 | < 1e-05 | – | – | < 1e-05 | – | < 1e-05
18 | U49G U54A | 0.00122 ± 0.00034 | – | 3170 ± 1400 | – | 0.000941 ± 0.00014 | 0.000176 ± 3.6e-05 | 9.47e-05 ± 2.3e-05
19 | C50G A64U | 5.29e-05 ± 1.7e-05 | – | – | 5.11e-05 ± 1.7e-05 | – | 9.1e-05 ± 2.3e-05 | 6.24e-05 ± 1.5e-05
20 | G51A G66C | < 1e-05 | – | 510 ± 240 | – | – | – | –
21 | A52U U69G | 2.57e-05 ± 7.6e-06 | – | – | 2.11e-05 ± 7.8e-06 | – | 3.97e-05 ± 1e-05 | 4.23e-05 ± 1.1e-05
22 | C50U G60U C70U | 1.49e-05 ± 6e-06 | – | – | – | – | – | –
23 | A52U C68A | 2.14e-05 ± 8.2e-06 | – | – | – | – | – | –
24 | G51A C70G | 3.48e-05 ± 7.3e-06 | – | – | – | – | – | –

Row | Variant | kcat [1] [s⁻¹] | self-cleavage kobs at 40 uM GlcN6P [2] [s⁻¹] | KM [3] [µM] | self-cleavage kobs at 2500 uM GlcN6P [4] [s⁻¹] | self-cleavage kobs at 10000 uM GlcN6P [5] [s⁻¹] | self-cleavage kobs at 640 uM GlcN6P [6] [s⁻¹] | self-cleavage kobs at 160 uM GlcN6P [7] [s⁻¹]
25 | G51A C70A | 2.99e-05 ± 7.1e-06 | – | – | 3.24e-05 ± 1.5e-05 | – | – | –
26 | A52U U65A U69C | 1.13e-05 ± 8.7e-07 | – | 1400 ± 420 | – | – | – | –
27 | C50U C71A | 2.1e-05 ± 3.7e-06 | – | – | 2.3e-05 ± 8.6e-06 | – | 2.36e-05 ± 1.1e-05 | –
28 | C50U U57A | 1.46e-05 ± 7e-07 | < 1e-05 | 397 ± 84 | – | < 1e-05 | – | –
29 | G51A C67A | 1.27e-05 ± 2.8e-06 | – | – | – | – | – | –
30 | C50U U69C | 2.88e-05 ± 9.3e-06 | – | – | 4.75e-05 ± 1.5e-05 | – | – | 4.48e-05 ± 1.5e-05
31 | C50U U69A | 2.06e-05 ± 3.7e-06 | – | – | – | – | – | –
32 | C50U U69G | 2.82e-05 ± 7.6e-06 | – | – | 3.39e-05 ± 1.4e-05 | – | – | 3.94e-05 ± 1.2e-05
33 | C50U C58G | 1.24e-05 ± 3.2e-06 | < 1e-05 | – | – | – | – | –
34 | G51U C67G | < 1e-05 | – | – | – | – | – | –
35 | C50U U57C G63A | 2.57e-05 ± 3.6e-06 | – | – | – | – | – | –
36 | U49G A64G | 0.00241 ± 0.00088 | 6.16e-05 ± 1e-05 | – | 0.000922 ± 0.00016 | 0.00232 ± 0.0003 | 0.000414 ± 6.7e-05 | 0.00015 ± 4.1e-05
37 | C50G U56G | 4.44e-05 ± 8.9e-06 | – | – | 5.17e-05 ± 2.1e-05 | – | – | 4.35e-05 ± 1.5e-05
38 | U49G C67G | 8.59e-05 ± 1e-05 | – | – | 4.61e-05 ± 8.8e-06 | 7.87e-05 ± 6.7e-06 | 3.79e-05 ± 1e-05 | –
39 | U49G U56G | 0.000717 ± 1.9e-05 | – | 4760 ± 210 | 0.000254 ± 4.7e-05 | 0.000484 ± 5.8e-05 | 8.38e-05 ± 1.5e-05 | –
40 | G51U U65G G66C | < 1e-05 | – | – | – | < 1e-05 | < 1e-05 | –
41 | G51U U57G | < 1e-05 | – | – | – | < 1e-05 | – | –
42 | C50A U56G | < 1e-05 | – | – | – | – | – | –
43 | C50A G60C | 1.48e-05 ± 7e-06 | – | – | – | – | – | –
44 | C50U U57A G59C U65A C70U | 2.56e-05 ± 4.5e-06 | < 1e-05 | 293 ± 140 | – | < 1e-05 | – | –
45 | A52G C68A C70U | 1.69e-05 ± 3.4e-06 | – | – | – | – | – | –
46 | A52C G66C | 1.28e-05 ± 2.9e-06 | < 1e-05 | – | – | – | < 1e-05 | –
47 | A52G U69A | 5.52e-05 ± 3e-06 | – | – | 5.1e-05 ± 1.7e-05 | 5.51e-05 ± 8.5e-06 | – | –
